Our source for the activity (integrants per donor cell) values is patent US7425449.

Data set [1] addresses T1, U153 integrase (Listeria phage U153) (UniProt Q8LTD8).
T1 sequence: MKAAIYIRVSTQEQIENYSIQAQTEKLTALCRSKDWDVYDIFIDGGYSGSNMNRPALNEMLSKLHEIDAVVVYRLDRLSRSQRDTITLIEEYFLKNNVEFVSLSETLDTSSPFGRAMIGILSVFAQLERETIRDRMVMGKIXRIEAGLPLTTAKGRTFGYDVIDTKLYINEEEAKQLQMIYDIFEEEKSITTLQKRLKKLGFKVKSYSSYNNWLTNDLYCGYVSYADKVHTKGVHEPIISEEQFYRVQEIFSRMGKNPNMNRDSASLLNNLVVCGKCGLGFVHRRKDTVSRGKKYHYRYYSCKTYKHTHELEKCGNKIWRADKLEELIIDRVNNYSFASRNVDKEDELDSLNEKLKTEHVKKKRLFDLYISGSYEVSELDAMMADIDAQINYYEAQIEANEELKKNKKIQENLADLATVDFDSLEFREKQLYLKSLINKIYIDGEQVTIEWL
Briefly: cell_activity.

Data set [2] addresses T2, PSA integrase (Listeria phage PSA) (UniProt Q8W5Y3).
T2 sequence: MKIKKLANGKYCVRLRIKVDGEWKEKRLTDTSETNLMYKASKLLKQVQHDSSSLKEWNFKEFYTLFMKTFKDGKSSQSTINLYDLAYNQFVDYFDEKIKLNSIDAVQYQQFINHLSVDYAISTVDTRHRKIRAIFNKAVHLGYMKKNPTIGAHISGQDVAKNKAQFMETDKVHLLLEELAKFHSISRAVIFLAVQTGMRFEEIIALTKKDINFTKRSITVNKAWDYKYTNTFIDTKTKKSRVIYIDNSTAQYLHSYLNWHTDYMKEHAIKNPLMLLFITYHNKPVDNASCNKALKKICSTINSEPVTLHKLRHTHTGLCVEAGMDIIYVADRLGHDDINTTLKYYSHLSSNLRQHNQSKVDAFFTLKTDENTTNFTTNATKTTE
Briefly: cell_activity. The settings on record: pPL2 in 10403S and EGDe; attB' side unrelated to 4b, attB side 96-97% identical.

U153 attPP' had an activity (integrants per donor cell) in data set [1] (attPP' partner on pPL1, stable for 100 generations) of 0.0002.
In turn, comK-attBB' displayed an activity (integrants per donor cell) in data set [1] (pPL1 integration at comK in DP-L4056, similar frequency in SLCC-5764 and 4b strains, PCR confirmed) of 0.0002.
In data set [2], “tRNAArg-attBB' serotype 1/2 (10403S, EGDe)” gave an activity (integrants per donor cell) of 0.0002.
